A short description of the data set: yeast display, Sf9 membrane polyspecificity reagent, FACS + sequencing; frameworks hold sequencing errors. Summed up:
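A synthetic nanobody library was expressed on Saccharomyces cerevisiae BJ5465 by galactose induction for 36–48 hours. The library was stained for 1 hour at 4 °C with 10% biotinylated, detergent-solubilized Sf9 membrane reagent and enriched with streptavidin microbeads before FACS. Low and high (top ~1%) gates were set on anti-HA fluorescence for expression and streptavidin fluorescence for reagent binding, and each polyreactivity label reflects the gate of origin.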
As to “QVQLVESGGGLVQAGGSLRLTCAASGRTFYYYAMGWYRQAPGKERELVAAISRSGGSTYYADSVKGRFTISRDNSKNTVYLQMNSLKPEDTAVYYCAKVAITSSGYWRYDYWGQGTQVTVSS”, the “polyreactivity (PSR sort gate)” value is on record as “high polyreactivity”.
With “QVQLVESGGGLVQAGGSLRLTCAASGRTLAKNAMGWYRQAPGKERELVAAISRRGGSTYYADSVKGRFTISRDNAKNTVYLQMNSLKPEDTAVYYCARASRQGYYQLSYDEFDYWGQGTQVTVSS”, the “polyreactivity (PSR sort gate)” value is “high polyreactivity”.
On to “QVQLVESGGGLVQAGGSLRLTCAASGSIFFYYTMGWYRQAPGKERELVAAISVGGSTYYADSVKGRFTISRDNAKNTVYLQMNSLKPEDTAVYYCNAVPAKGYVTVVRYYYWGQGTQVTVSS”, for which the “polyreactivity (PSR sort gate)” value is “low polyreactivity”.
The entry for “QVQLVESGGGLVQAGGSLRLTCAASGSIFPRYAMGWYREAPGKERELVAAISFRGASTYYADSVKGRFTISRDTEKNTVYLQMNSLKPEDTAVYYWNAVSRSLNYDYWGQGTQVTVSS” is “high polyreactivity”; for “QVQLVESGGGLVQAGGSLRLTCAASGSIFRGYDMRWYRQAPGKERELVAASTWSGSTYYADSVKGRFTISRDNGKNTVYLQMNSLKPEDTAVYYCAAGSRYAYAYTMDYWGQGTQVTVSS” it is “high polyreactivity”.
In the case of “QVQLVESGGGLVQAGGSLRLTCAASGSIFRTNTMGWYRQAPGKVRELVAAITAIGDSTYYADSVKGRFTISRDNANNTVYLQMNSLKPEDTAVYYCAAEKVSWGYHFYSSYDYWGQGTQVTVSS” it was “low polyreactivity”; in that of “QVQLVESGGGLVQAGGSLRLTCAASGSIFTAYAMRLYRQAPGKERELVAAIDDSGDSTYYADSVKGRFTISRDNAKITVYLQMNSLKPEDTAVYYCKAEYRVNKEYDYWGQGTQVTVSS”, “low polyreactivity”.
In the case of “QVQLVESGGGLVQAGGSLRLTCAASGSIFTAYTMGWYRQAPGKERDLVAAITERGGSTYYADSVKGRFTISRDNAKNTVYLQMNRMKPEDSAVYYCAASTLKDIYLWFRVDYWGQGTHVTVSS” it was “low polyreactivity”.
Turning to “QVQLVESGGGLVQAGGSLRLTCAASGSIFYFNTMGWYRQAPGKERELVAVISRRGGSTYYADSVKGRFTISRDNAKNTVYLQMNSLKPEDTAVYYCNAEVFDLWRSFLSPYEYWGQGTQVTVSS”, the “polyreactivity (PSR sort gate)” value is on record as “low polyreactivity”.
The entry for “QVQLVESGGGLVQAGGSLRLTCAASGSIFYYYAMGWYRQATGKERELVAAINSGVSTYYADSVKGRFTISRDNANNTVYLQMNSLKPDDTAVYYCAAPGHNLFGSWFSWTPDTYDYWGQGTQVTVSS” is “low polyreactivity”.
In the case of “QVQLVESGGGLVQAGGSLRLTCAASGSILDYYVMGWYRQAPAKEREMVAAIRGGGSTYYADSVKGRFTISRDNAKNTVYLQMNSLKPEDTAVYYCAKDSQTARDFDYWGQGSQVTVSS” it was “low polyreactivity”; in that of “QVQLVESGGGLVQAGGSLRLTCAASGSIYKYKAMGWYRQAPGKERELVAAIRWSGVGTRYADSVKGRFTISRDNAKNSLYLQMNSLKREDTAVYYCAADVSKYHDGHEYDYWGQGTQVTVSS”, “low polyreactivity”; in that of “QVQLVESGGGLVQAGGSLRLTCAASGSTFDYNTMGWYRPAPGKETELVAAISESGGSTYYADSVKGRFTISRDNAKNTVYLQMNSLTPEDTAVYYCATDDFGGYFGEYDYWGQGTQVTVSS”, “low polyreactivity”.
Take “QVQLVESGGGLVQAGGSLRLTCAASGSTFGWYAMGWYRQAPGKGRGVVAAITGDSASTYYADSVKGRFTISRDNAKNTVYLQTNSLKPEDTAVYYCAATKFSAFGSPPLIGYGYWGQGTQVTVSS”: the “polyreactivity (PSR sort gate)” value is on record as “low polyreactivity”.
For the sequence “QVQLVESGGGLVQAGGSLRLTCAASGSTFIFKKYVMGWYRQAPGSERELVAVISRRGDSTYYADSVKRPFTISRDNAKNTVYLQMNSLKPEDTAVYYCGAGYSTAGLARYDYWGQGTQVTVSS”, the “polyreactivity (PSR sort gate)” value is on record as “high polyreactivity”.
As to “QVQLVESGGGLVQAGGSLRLTCAASGSTFKYYAMGWYRQAPGKERELVAAIDWNGGRTYYADSVKGRFTISRDNAKNTVYLQMNSLKPEDTAVYYCAKLGRAAQGNYYWGQGTQVTVSS”, the “polyreactivity (PSR sort gate)” value is “high polyreactivity”.
The entry for “QVQLVESGGGLVQAGGSLRLTCAASGSTFSANAMGWYRPGPGKERELVAGISRSGGRTYYADSVKGRFTISRDNAKNTVYLQMNSLKPEDTAVYFCNDRRRGAGGYDYWGQGTQVTVSS” is “high polyreactivity”.
As to “QVQLVESGGGLVQAGGSLRLTCAASGSTFSRYVIGWYRQEPGKERELVAAISRSGSTYYADSVKGRFTISRDNAKNTVYLQMNSLKPEDTAVYYCAASGSKSAGYGYWGQGTQVTVSS”, the “polyreactivity (PSR sort gate)” value is on record as “high polyreactivity”.
With “QVQLVESGGGLVQAGGSLRLTCAASGSTFVLYARGWYRQAPGKERELVAAITRRGGDTYYADSVKGRFTISRDNAKNTVYLQMNSLKPEDTAVYFCATDYTTYGRYDYWGHGTQVTVSS”, the “polyreactivity (PSR sort gate)” value is given as “low polyreactivity”.
Take “QVQLVESGGGLVQAGGSLRLTCAASGSTLYVYPMGWYRPAPGKERELVASINSGGSTNYADSVKGRFSISRDNAKNTVYLQMNSLKRVDTAVYYCNAEYYGWFHHYDYWGQGTQVTVSS”: the “polyreactivity (PSR sort gate)” value is “high polyreactivity”.
The entry for “QVQLVESGGGLVQAGGSLRLTCAASGYIFLQYAMGWYRPAPGKERELVAAITYNGGITYYADSVKGRFTISRDNAKNTVYLQRNSLKPEDTAVYYCAADKNQDVSYVGFDYWGQGTQVTVSS” is “low polyreactivity”; for “QVQLVESGGGLVQAGGSLRLTCAASGYIFPYNVMGWYRQAPGKERELVAAITWRVVRTYYADSVKGRFTISRDNAKNTVYLQMNSLKPEDTAVYYCAALSRQSGDYWGQGTQVTVSS” it is “high polyreactivity”; for “QVQLVESGGGLVQAGGSLRLTCAASGYIFYTYAMGWYRQAPGKERELVAGITGSGGSTYYADSVKGRFTISRDNAKNTVYLQMNSLKPEDTAVYYCAKDIYQIGYRRYDSWGQGTQVTVSS” it is “low polyreactivity”.
As for “QVQLVESGGGLVQAGGSLRLTCAASGYTFRGYAMGWYRQAPGKEREFVAAINWSDGSTYYADSVKGRFTISRDNAKNTVYLQMNSLKPEDTAVYYCNADQYYRVPDNYWGQGTQVTVSS”, the “polyreactivity (PSR sort gate)” value is listed as “low polyreactivity”.
The entry for “QVQLVESGGGLVQAGGSLRLTCAASGYTFWLNGMGWYRHAPGKERELVAAISSSGGSTYYADSVKGRFTISRDNAKNTVYLQMNSLKPEDTAVYDCAVDAYWRHWYYPYESHHDYWGQGTQVTVST” is “low polyreactivity”; for “QVQLVESGGGLVQAGGSLRLTCAASGYTFYYAMGWYRQAPGKERELVAAITRGGSTYYADSVKGRFTISRDNAKNTVYLQMNSLKPEDTAVYYCATEYHAHYASRALYGYDHWGQGTQVTVSS” it is “low polyreactivity”.
Regarding “QVQLVESGGGLVQAGGSLRLTCAASVRTCYSYALGWYRQEPGKEMELVASISSGGGTNYADSVKGRFTISRYNAKNTVFLQMNSLKPEDTAVYYFAAYSSWGGFDYWGQGTQLTVSS”, the “polyreactivity (PSR sort gate)” value is given as “low polyreactivity”.
In the case of “QVQLVESGGGLVQAGGSLRLTSADSGSTFSFSAMRWYRQAPGKERELVAAIRSSVGSTYYADSVKGRFTISRDNAKNTVYLQMNSLKPEDTAVYNCAATTHWFRSYREFYYWGQGTQVTVSS” it was “high polyreactivity”; in that of “QVQLVESGGGLVQAGGSLRLTWEAYGFTFKYYPMGWYRQAPGKEWELVADITRSGGSTYYADSVKGRFTISRDNAKITVYLEMYILKPEDTAVYYCAVDPVRYQYSYDYWCQGTQVTVSS”, “high polyreactivity”.
Take “QVQLVESGGGLVQAGGSLRVICAASGSTFLENAMGWYRQAPGKERELVAAISRSGARTYYADSVKGRFTISRDNAKNTVYLQMNSLKPEDTAVYYCAASHGKNKASGPMDYWGQGTQVTVSS”: the “polyreactivity (PSR sort gate)” value is given as “high polyreactivity”.
In the case of “QVQLVESGGGLVQAGGSLRVSCAASGFIFLYYAMGWYRQAPGKERELVADISRGADTKYADSVKGRFTISRDNAKNTVYLQMNSLKPEDTAVYYCATDITTFWFPYPGVELGYWGQGTQVTVSS” it was “low polyreactivity”.
The entry for “QVQLVESGGGLVQAGGSLRVSCAASGFIFTGYTMGWYRQAPGKERELLAAVSYRGGSTYYADSVKGRFTISRDNAKNTVYLQMNSLKPEDTAVNYCNAVWSNFRLGYDYWGQGTQVTVSS” is “high polyreactivity”.
The entry for “QVQLVESGGGLVQAGGSLRVSCAASGFTFGPYDMGGSRQAPGKERELVAVIIGGDSTNYADSVKGRFTISRDNAKNTVYLQMNRLKPEDTAVYYCAADYIDRVGWMDYWGQGTQVTVSS” is “low polyreactivity”; for “QVQLVESGGGLVQAGGSLRVSCAASGFTFYVNAMGRYRQAPGKERELVAVISPSGGRTYYADSVKGRFTISRDNAKNTVYLQMNSLKPEDTAVYYCAAESGGYHWSTPYFDWLYYYWGQGTQVTVSS” it is “low polyreactivity”; for “QVQLVESGGGLVQAGGSLRVSCAASGIIFVVYDMGWYRQAPGKERELVAAINWSGGSTYYADSVKGRFTISRDNAKNTVYLQMNSLKPEDTAVYYCAAESFSDGSPYNYWGQGTQVTVSS” it is “low polyreactivity”.
For “QVQLVESGGGLVQAGGSLRVSCAASGRIFDSYAMGWSRQAPGKERELVAVISNNDGTTYYADSVKGRFTISRDNAKTTVYLQMNSLKPEDTAVYYCNAVYSSGVDGSEGFDYWGQGTQVTVSS”, the “polyreactivity (PSR sort gate)” value was “low polyreactivity”.
In the case of “QVQLVESGGGLVQAGGSLRVSCAASGRTFGVYTMGWYRLAPGKERELVAAITWGGGRTYYADSVKGRFTISRDNAKNTVYLHMNSLKPEDTAVYYRAARVRGQGSYHFGYWGQGTQVTVSS” it was “high polyreactivity”.
The entry for “QVQLVESGGGLVQAGGSLRVSCAASGRTFPYYDMGWYRQAPGKEREFVAAITWRGGSTYYADSVKGRFTISRDNAKNTVYLQMNSLKPEDSAVYYCATDSLRLYGGKRDLYYWGQGTQVTVSS” is “low polyreactivity”.
The entry for “QVQLVESGGGLVQAGGSLRVSCAASGRTLRSYAMGWYRQAPGKERELVAAISRSGGSTYYADSVKGRFTISRDNAKNPVYLQMNSLKPEDTSVYYCATRYLRSLDYWGQGTQVTVSS” is “high polyreactivity”.
Take “QVQLVESGGGLVQAGGSLRVSCAASGSIFHENAMGWYRPAPGKEWELVAAIDQTGSTYADSVKGRFTISRDNAKNTVYLQMNSLKPEDTAVYYCAKGDVSLDYPSLEFDYWGQGTQVTVSS”: the “polyreactivity (PSR sort gate)” value is on record as “low polyreactivity”.

These data come from the nanobody polyreactivity screen of Harvey et al. (2022).
